From article PMC7026483

Biological target: T1, GlxR-A131T A131T (Corynebacterium glutamicum WT (ATCC 13032?)) (UniProt Q79VI7)
T1 sequence: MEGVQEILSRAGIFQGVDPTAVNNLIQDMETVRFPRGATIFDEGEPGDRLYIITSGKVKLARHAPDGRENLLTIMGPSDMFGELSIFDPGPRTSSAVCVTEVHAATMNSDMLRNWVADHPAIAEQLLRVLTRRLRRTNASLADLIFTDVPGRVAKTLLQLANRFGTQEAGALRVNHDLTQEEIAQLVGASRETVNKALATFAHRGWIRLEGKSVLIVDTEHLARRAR
Assay: EMSA
Conditions: EMSA: 100 ng DNA, 200 nM protein, with or without 0.2 mM cAMP, 30 min, room temperature, 10% native PAGE; binding buffer as in Bussmann et al. 2009 (not …)

Sequence	binding
GGTGGAAATATCTTCGTGGGTTTCGTTTTTAGGGGCGTCAAATGTCTTTCAACTGCAACGATATGCCCGAATCCTCAGGTGGAATACCTAAAGTCTAGGCAATTGGTGTATGCCACGTCACAGACCATCAAC (double strand) [ctaCF promoter fragment]	binds
CTTCCTGGCGAAATGTCCGTCAAATTGTGAACCCCTTCACACCTTTGGTTAAAAGTCACTGCCCACAAGTGACTGAACCTGGCAGCGACCTCATGAATTGTTTGAAAAACATTTTTTTTGGGCATGAAAAGGGGATACAG (double strand) [ctaD promoter fragment]	binds
